Reference: publication PMC11065761
Where two headings read alike, the source gives them in different places.

Experiments:
Test in all cases: SPR
C3b [1] = biological target: C3b
C4b (amine coupled) = biological target: C4b (amine coupled)
[2] = biological target: C4b biotinylated at the free sulfhydryl group of the thioester moiety
C3d = C3d (UniProt P01024)
C3b [3] = biological target: C3b; remark: listed apart in the source

Chain of Full-length factor H (FH) (P08603 19-1231): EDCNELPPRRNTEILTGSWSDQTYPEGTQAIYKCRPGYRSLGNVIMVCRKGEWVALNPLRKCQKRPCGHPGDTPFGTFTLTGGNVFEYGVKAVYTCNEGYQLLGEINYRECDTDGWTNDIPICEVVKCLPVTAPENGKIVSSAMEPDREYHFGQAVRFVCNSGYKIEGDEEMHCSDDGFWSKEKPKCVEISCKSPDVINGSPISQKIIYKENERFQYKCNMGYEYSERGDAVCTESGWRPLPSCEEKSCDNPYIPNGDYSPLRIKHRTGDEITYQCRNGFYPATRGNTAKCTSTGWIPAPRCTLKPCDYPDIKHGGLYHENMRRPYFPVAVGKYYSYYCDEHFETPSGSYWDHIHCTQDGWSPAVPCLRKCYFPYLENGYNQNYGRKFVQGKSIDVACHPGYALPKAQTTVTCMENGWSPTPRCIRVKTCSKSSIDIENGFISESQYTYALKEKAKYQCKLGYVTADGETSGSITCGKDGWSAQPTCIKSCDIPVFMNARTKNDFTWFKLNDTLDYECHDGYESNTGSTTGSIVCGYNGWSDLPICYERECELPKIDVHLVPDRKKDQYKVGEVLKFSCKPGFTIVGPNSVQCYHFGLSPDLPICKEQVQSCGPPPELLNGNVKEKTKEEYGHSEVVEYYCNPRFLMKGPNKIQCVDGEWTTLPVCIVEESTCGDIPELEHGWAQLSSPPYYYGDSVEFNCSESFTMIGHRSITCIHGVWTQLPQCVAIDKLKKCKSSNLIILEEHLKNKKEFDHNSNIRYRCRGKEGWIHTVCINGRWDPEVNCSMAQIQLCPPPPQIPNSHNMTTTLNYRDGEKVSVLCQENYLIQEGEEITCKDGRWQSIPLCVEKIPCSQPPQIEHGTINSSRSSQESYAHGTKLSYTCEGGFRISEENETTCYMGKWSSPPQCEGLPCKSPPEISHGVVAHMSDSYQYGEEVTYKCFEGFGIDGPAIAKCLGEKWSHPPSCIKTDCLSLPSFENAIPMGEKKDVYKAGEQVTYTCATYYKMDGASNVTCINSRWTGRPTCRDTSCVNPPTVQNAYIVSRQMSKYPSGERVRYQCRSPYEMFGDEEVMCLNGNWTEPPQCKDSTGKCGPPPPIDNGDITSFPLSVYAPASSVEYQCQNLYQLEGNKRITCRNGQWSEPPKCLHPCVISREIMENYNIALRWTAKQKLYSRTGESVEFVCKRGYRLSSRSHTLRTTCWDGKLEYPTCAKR
Chain of C3d (P01024 1002-1303): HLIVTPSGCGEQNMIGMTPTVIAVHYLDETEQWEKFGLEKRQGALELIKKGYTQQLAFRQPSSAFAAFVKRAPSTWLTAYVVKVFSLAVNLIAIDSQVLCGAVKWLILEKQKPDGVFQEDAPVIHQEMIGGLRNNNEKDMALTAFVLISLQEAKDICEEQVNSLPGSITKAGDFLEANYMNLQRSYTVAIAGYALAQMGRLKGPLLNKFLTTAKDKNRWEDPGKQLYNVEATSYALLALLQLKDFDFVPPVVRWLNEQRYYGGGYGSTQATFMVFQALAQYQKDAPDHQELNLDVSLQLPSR

Kd (C3b [1])	Kd (C4b (amine coupled))	Kd [2]	Kd (C3d)	Kd (C3b [3])	Substance
25 nM	–	–	–	–	TriFu_13G (triple fusion complement inhibitor, 13 glycine residues between DAF and FH)
802 nM	–	–	–	–	Full-length factor H (FH) (from UniProt P08603 19-1231) (natural protein)
59 nM	865 nM	643 nM	22000 nM	50 nM	TriFu_6G (triple fusion complement inhibitor, 6 glycine residues between DAF and FH)
–	–	7800 nM	–	900 nM	CR1(15–17), the middle CCP domains 15 to 17 of complement receptor 1 (domain or fragment)
–	–	–	–	175 nM	DAF(1–4)FH(19–20)-LL (long linker, polyglycine linker of 13 residues)
–	–	–	–	125 nM	DAF(1–4)FH(19–20)-SL (short linker, "GPGG")
–	–	–	–	4700 nM	FH(19–20), the two C-terminal CCP domains of factor H (domain or fragment)
–	–	17600 nM	–	11000 nM	DAF(1–4), the first four CCP domains of decay accelerating factor (domain or fragment)
